The values below come from the supplement of paper PMC6757056.

To fix the notation:
B1: library; a variant is named by its letters at N, in order (parent)
chain: GCUGUCACCGGAAUACCAGCAUCGUCUUGAUGCCCUUGGAAGUCCGGUCUGAUGAGUCCNNNNNGGACGAAACAGC

± gives the standard deviation of the averaged measurements.

The variants in series [1] derive from B1. Kind of series: normalized RNA/DNA level with ligand (relative to sTRSVctl = 100) (log10 (% of sTRSVctl)); higher = less ribozyme self-cleavage, higher mRNA level. The following applies: ligand concentration (+) RNA-Seq: 5 mM, HEK293T, reporter: mCherry (pCS4076), ligand present: yes. The gist of the method: (§1)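 RNA level was computed as RNA reads over DNA reads divided by a spiked-in non-cleaving sequence or by the top sequences, then scaled and log-transformed. Scaling was ×100 with log10, the top group was 25 sequences, and the threshold was ≥100 DNA reads. The reads came from HEK293T cells transfected at 4 µg per 6-well well with ribozyme switch library plasmids (mCherry, or eGFP in some ligand experiments). Total RNA was extracted with EDTA 72 h after transfection, with any ligand added 1 h before it.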

Series [2] covers variants of B1. As to the kind of experiment: normalized RNA/DNA level without ligand (relative to sTRSVctl = 100) (log10 (% of sTRSVctl)); higher = less ribozyme self-cleavage, higher mRNA level. The following applies: HEK293T, reporter: mCherry (pCS4076), ligand present: no. The gist of the method:
as §1

The variants in series [3] derive from B1. As to the kind of experiment: FACS-Seq fitted mean relative fluorescence mCherry/BFP without ligand (log10 relative fluorescence); higher = higher reporter protein expression. The following applies: HEK293T, ligand present: no. The procedure, abridged:
(§2)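 With or without ligand for 48 h, enriched HEK293T libraries carrying a lentiviral ribozyme-switch mCherry reporter and EF1α-BFP were sorted into 6 mCherry/BFP bins. Bin genomic DNA was amplified by PCR, barcoded and sequenced on MiSeq. Fluorescence was taken from normal fits to the resulting bin counts. Each fitted mean of log10(mCherry/BFP) was scaled to five spiked-in control ribozymes.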

Series [4] covers variants of B1. As to the kind of experiment: FACS-Seq fitted mean relative fluorescence mCherry/BFP with ligand (log10 relative fluorescence); ligand concentration (+) FACS-Seq: 1 mM; higher = higher reporter protein expression. The following applies: HEK293T, ligand present: yes. The procedure, abridged:
as §2

Regarding UUCAA, the “normalized RNA/DNA level with ligand (log10)” value in series [1] turned out to be 2.08 ± 0.056. For the same variant, in series [2], the “normalized RNA/DNA level without ligand (log10)” value came to 1.86 ± 0.12.
With UUUGA, the “FACS-Seq fitted mean (log10)” value was determined as 0.62 ± 0.055 in series [3] and 0.856 ± 0.079 in series [4]. The “normalized RNA/DNA level with ligand (log10)” value in series [1] was determined as 2.09 ± 0.097. For the same variant, the “normalized RNA/DNA level without ligand (log10)” value in series [2] worked out at 1.94 ± 0.021.
UUUGC: the “normalized RNA/DNA level with ligand (log10)” value in series [1] is 2.05 ± 0.042. Further, in series [2], the “normalized RNA/DNA level without ligand (log10)” value is 1.93 ± 0.023.
Turning to UUUGU, the “FACS-Seq fitted mean (log10)” value in series [3] turned out to be 0.965 ± 0.067; in series [4], 0.8623 ± 0.0024. For the same variant, the “normalized RNA/DNA level with ligand (log10)” value in series [1] was 2.07 ± 0.082. Also, the “normalized RNA/DNA level without ligand (log10)” value in series [2] worked out at 2.02 ± 0.041.
In the case of UUUUC, the figures for the “FACS-Seq fitted mean (log10)” value in series [3] and in series [4] were 0.917 ± 0.042 and 0.94 ± 0.041, respectively. Moreover, in series [1], the “normalized RNA/DNA level with ligand (log10)” value worked out at 2.01 ± 0.077. Also, the “normalized RNA/DNA level without ligand (log10)” value in series [2] was 1.99 ± 0.18.
For UUUUU, in that order: 0.93 ± 0.071, 0.991 ± 0.017, 2.01 ± 0.027 and 1.95 ± 0.15.
For AUUGA, in that order: 0.66 ± 0.051, 0.85337 ± 0.00081, 1.99 ± 0.038 and 1.79 ± 0.08.
For AUUGC the same measures were 1.19 ± 0.033, 1.02 ± 0.1, 2.0706 ± 0.0016 and 2.01 ± 0.087.
Regarding AUUGU, the “FACS-Seq fitted mean (log10)” value is 1.06 ± 0.018 in series [3] and 1.15 ± 0.022 in series [4]. In addition, in series [1], the “normalized RNA/DNA level with ligand (log10)” value came out at 2.04 ± 0.047. The “normalized RNA/DNA level without ligand (log10)” value in series [2] amounted to 1.88 ± 0.064.
For UUUCC the same measures were 1.01 ± 0.062, 0.9258 ± 0.0036, 1.99 ± 0.028 and 1.97 ± 0.04.
With CUUCC, the “FACS-Seq fitted mean (log10)” value in series [3] turned out to be 0.782 ± 0.05; in series [4], 0.683 ± 0.091. In addition, the “normalized RNA/DNA level with ligand (log10)” value in series [1] amounted to 2.02 ± 0.059. Moreover, in series [2], the “normalized RNA/DNA level without ligand (log10)” value came out at 2.032 ± 0.0046.
For GUUGU, the “FACS-Seq fitted mean (log10)” value in series [3] is 0.526 ± 0.054; in series [4] it was 0.701 ± 0.16. The “normalized RNA/DNA level with ligand (log10)” value in series [1] came out at 1.93 ± 0.19. The “normalized RNA/DNA level without ligand (log10)” value in series [2] was 1.84 ± 0.058.
Turning to CAUUC, the “normalized RNA/DNA level with ligand (log10)” value in series [1] came to 2.07 ± 0.066. Besides, the “normalized RNA/DNA level without ligand (log10)” value in series [2] worked out at 1.92 ± 0.099.
Regarding AUUUC, the results for the “FACS-Seq fitted mean (log10)” value in series [3] and in series [4] were 1 ± 0.085 and 0.865 ± 0.018, respectively. The “normalized RNA/DNA level with ligand (log10)” value in series [1] amounted to 2.01 ± 0.07. The “normalized RNA/DNA level without ligand (log10)” value in series [2] was found to be 1.97 ± 0.11.
For AUUUU, in that order: 0.213 ± 0.053, 0.194 ± 0.022, 2.02 ± 0.043 and 1.88 ± 0.062.
With AUUUG, the results for the “FACS-Seq fitted mean (log10)” value in series [3] and in series [4] were 0.103 ± 0.037 and 0.184 ± 0.037, respectively. Also, the “normalized RNA/DNA level with ligand (log10)” value in series [1] turned out to be 2.03 ± 0.083. In addition, in series [2], the “normalized RNA/DNA level without ligand (log10)” value came to 1.93 ± 0.17.
For AUUUA, in that order: 0.734 ± 0.078, 0.834 ± 0.062, 2 ± 0.11 and 1.8 ± 0.08.
For GUUUG, in that order: 0.972 ± 0.24, 0.929 ± 0.17, 1.96 ± 0.091 and 1.77 ± 0.058.
Consider UCUUC, for which, in series [1], the “normalized RNA/DNA level with ligand (log10)” value came to 2.03 ± 0.1. For the same variant, the “normalized RNA/DNA level without ligand (log10)” value in series [2] stood at 1.97 ± 0.046.
